Measurements from article PMC5451212, “RISC-interacting clearing 3’- 5’ exoribonucleases (RICEs) degrade uridylated cleavage fragments to maintain functional RISC in Arabidopsis thaliana” (eLife, 2017).
Residue numbers refer to the chain shown, from its start. Numbers in names are those of the source.

T1: MBP-AGO1 (A. thaliana, UniProt O04379 1-1048)
T1 construct: ARGONAUTE 1 (AGO1), A. thaliana; purified as described in Zhang et al., 2006b; source: E. coli, purified (amylose resin); not shown: MBP, N-terminal, kept
T1 sequence (looked up): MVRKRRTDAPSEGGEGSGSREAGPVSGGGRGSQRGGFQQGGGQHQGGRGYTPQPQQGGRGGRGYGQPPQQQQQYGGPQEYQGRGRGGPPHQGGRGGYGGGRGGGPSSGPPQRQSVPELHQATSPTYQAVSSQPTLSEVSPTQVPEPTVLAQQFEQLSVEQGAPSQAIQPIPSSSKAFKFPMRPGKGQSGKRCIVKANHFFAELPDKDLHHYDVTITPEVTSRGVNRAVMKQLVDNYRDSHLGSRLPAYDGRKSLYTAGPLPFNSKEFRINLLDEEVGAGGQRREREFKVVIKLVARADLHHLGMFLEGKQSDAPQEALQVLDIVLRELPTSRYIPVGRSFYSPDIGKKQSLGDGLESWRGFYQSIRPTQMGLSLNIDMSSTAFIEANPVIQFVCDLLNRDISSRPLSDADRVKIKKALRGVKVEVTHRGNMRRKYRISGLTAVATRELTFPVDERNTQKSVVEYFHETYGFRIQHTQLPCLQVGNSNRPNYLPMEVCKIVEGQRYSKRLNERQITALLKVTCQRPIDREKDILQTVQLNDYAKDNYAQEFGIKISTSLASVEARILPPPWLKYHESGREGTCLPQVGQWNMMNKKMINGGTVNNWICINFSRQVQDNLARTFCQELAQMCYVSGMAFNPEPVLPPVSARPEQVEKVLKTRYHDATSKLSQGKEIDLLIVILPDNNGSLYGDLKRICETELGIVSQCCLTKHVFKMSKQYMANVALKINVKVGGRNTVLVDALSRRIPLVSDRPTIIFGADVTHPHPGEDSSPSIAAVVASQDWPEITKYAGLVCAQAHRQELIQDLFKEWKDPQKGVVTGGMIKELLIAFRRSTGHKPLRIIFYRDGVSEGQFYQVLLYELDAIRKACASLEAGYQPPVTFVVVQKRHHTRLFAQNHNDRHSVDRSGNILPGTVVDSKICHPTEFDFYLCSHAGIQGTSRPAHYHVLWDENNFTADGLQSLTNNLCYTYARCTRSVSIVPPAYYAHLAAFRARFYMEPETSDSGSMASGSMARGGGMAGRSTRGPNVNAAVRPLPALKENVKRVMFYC

T2: MBP-AGO10 (A. thaliana, UniProt Q9XGW1 1-988)
T2 construct: ARGONAUTE 10 (AGO10), A. thaliana; source: E. coli BL21 (DE3), purified (amylose resin); not shown: MBP, N-terminal, kept
T2 sequence (looked up): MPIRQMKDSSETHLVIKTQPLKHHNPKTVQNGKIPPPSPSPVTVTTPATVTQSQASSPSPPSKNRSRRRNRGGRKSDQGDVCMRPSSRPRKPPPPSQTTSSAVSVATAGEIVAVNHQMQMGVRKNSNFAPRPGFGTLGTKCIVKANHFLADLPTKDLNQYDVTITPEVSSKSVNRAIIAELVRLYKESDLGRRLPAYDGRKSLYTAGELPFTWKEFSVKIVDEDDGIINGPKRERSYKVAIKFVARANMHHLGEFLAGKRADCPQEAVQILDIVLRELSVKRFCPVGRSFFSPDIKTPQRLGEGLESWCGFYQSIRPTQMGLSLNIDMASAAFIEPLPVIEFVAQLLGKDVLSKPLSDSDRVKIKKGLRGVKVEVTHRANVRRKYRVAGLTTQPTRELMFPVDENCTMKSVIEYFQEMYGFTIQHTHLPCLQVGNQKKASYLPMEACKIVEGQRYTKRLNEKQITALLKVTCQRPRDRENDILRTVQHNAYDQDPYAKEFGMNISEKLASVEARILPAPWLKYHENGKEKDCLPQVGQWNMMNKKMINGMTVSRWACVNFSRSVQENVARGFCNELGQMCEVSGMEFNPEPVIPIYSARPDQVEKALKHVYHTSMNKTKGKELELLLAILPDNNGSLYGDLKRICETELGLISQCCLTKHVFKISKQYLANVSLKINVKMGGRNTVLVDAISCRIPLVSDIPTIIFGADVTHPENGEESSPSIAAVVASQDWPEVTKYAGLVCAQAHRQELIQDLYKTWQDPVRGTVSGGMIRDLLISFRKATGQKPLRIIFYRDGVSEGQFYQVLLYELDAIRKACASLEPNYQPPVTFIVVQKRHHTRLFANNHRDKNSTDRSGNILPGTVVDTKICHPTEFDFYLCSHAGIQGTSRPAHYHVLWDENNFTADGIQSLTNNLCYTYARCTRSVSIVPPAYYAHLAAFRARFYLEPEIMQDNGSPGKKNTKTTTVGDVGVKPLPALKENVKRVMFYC

T3: MBP-AGO10 NC (127-336) (A. thaliana, UniProt Q9XGW1 127-336)
T3 construct: source: E. coli BL21 (DE3), purified (amylose resin); not shown: MBP, N-terminal, kept
T3 sequence (looked up): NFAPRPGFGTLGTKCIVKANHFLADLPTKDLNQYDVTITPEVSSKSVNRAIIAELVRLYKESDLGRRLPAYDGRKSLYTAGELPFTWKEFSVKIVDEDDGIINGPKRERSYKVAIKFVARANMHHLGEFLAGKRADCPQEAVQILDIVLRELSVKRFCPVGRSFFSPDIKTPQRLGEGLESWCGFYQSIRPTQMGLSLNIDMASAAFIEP

T4: MBP-AGO10 PIWI (625-988) (A. thaliana, UniProt Q9XGW1 625-988)
T4 construct: AGO10, A. thaliana, residues 625-988 (PIWI); source: E. coli BL21 (DE3), purified (amylose resin); not shown: MBP, N-terminal, kept
T4 sequence (looked up): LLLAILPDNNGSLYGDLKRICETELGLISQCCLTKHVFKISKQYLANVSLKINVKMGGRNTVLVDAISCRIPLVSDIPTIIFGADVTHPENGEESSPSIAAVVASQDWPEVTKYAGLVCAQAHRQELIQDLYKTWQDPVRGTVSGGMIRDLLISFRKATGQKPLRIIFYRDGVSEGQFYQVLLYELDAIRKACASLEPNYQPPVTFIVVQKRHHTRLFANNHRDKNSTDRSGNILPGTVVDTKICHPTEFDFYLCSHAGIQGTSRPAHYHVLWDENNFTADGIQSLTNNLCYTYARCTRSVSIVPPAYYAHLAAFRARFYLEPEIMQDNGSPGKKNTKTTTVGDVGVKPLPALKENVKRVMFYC

B1: 6His-SUMO-RICE2 (natural protein, A. thaliana, UniProt Q9FNG3 1-206, looked up)
chain: MASFDGPKFKMTDGSYVQTKTIDVGSSTDISPYLSLIREDSILNGNRAVIFDVYWDVGFPETETKTKTSGWSLSSVKLSTRNLCLFLRLPKPFHDNLKDLYRFFASKFVTFVGVQIEEDLDLLRENHGLVIRNAINVGKLAAEARGTLVLEFLGTRELAHRVLWSDLGQLDSIEAKWEKAGPEEQLEAAAIEGWLIVNVWDQLSDE
notes: RICE2 (At5g06450; AtDECP), A. thaliana; open reading frame in pET28a-SUMO-DC; also called AtDECP; source: E. coli BL21 (DE3), purified (Ni-NTA); not shown: His6, N-terminal, kept; SUMO, N-terminal, kept
B2: RICE2, purified recombinant (SUMO tag cleaved) (enzyme, A. thaliana, UniProt Q9FNG3 1-206, looked up)
chain: B1 chain
notes: RICE2 (At5g06450; AtDECP), A. thaliana; full-length cDNA in pET28a-SUMO (BamHI/SacI); also called AtDECP; source: E. coli BL21 (DE3), purified (Ni-NTA, SUMO protease cleavage, SEC); not shown: His6, N-terminal, cleaved; SUMO, N-terminal, cleaved
B3: 6His-SUMO-RICE1 (natural protein, A. thaliana, UniProt Q9SF21 1-200, looked up)
chain: MASFDGQGFMMVDNSWVQTKAIDVESTTDISPYLSKILEDSVWNGNRSIVFDVYWDVKSVSTKSEWRLCSVKFSTKNFCLFLRLPNPFCDNLKDLYRFFASKFVTFVGVQIQEDLALLKENHGIVIRSSLEIGKLAAKARGTPIVEFLGTRELAHKILWYDMSRLDSIQSKWDEASSNDRLEAAAIEGWLIFNVYDQLQQ
notes: RICE1 (At3g11770), A. thaliana; open reading frame in pET28a-SUMO-DC; source: E. coli BL21 (DE3), purified (Ni-NTA); not shown: His6, N-terminal, kept; SUMO, N-terminal, kept
B4: RICE1 E187A, purified recombinant (enzyme, A. thaliana, UniProt Q9SF21 1-200, looked up)
chain: B3 chain with E187A
notes: RICE1 (At3g11770), A. thaliana; point mutant made on pET28a-SUMO-RICE1; source: E. coli BL21 (DE3), purified (Ni-NTA, SUMO protease cleavage, SEC); not shown: His6, N-terminal, cleaved; SUMO, N-terminal, cleaved
B5: RICE1 Y54S, purified recombinant (enzyme, A. thaliana, UniProt Q9SF21 1-200, looked up)
chain: B3 chain with Y54S
notes: as for B4
B6: RICE1 D52A, purified recombinant (enzyme, A. thaliana, UniProt Q9SF21 1-200, looked up)
chain: B3 chain with D52A
notes: as for B4
B7: MBP-AGO10 PAZ (337-474) (domain or fragment, A. thaliana, UniProt Q9XGW1 337-474, looked up)
chain: LPVIEFVAQLLGKDVLSKPLSDSDRVKIKKGLRGVKVEVTHRANVRRKYRVAGLTTQPTRELMFPVDENCTMKSVIEYFQEMYGFTIQHTHLPCLQVGNQKKASYLPMEACKIVEGQRYTKRLNEKQITALLKVTCQR
notes: AGO10, A. thaliana, residues 337-474 (PAZ); source: E. coli BL21 (DE3), purified (amylose resin); not shown: MBP, N-terminal, kept

Columns and labels:
MBP-AGO1 = target: T1, MBP-AGO1; experiment: pull-down; His-SUMO baits and MBP-fusion preys purified from E. coli; prey preabsorbed on Ni-NTA resin, then incubated with bait 1 hr at room temperature and captured on Ni-NTA; 50 mM Tris pH 7.5, 150 mM NaCl, 0.2% glycerol, 0.6% Triton X-100, 0.5 mM β-mercaptoethanol; six washes with 300 mM NaCl; blot with anti-MBP; conditions: both partners purified
MBP-AGO10 = target: T2, MBP-AGO10; experiment: as above; conditions: both partners purified
MBP-AGO10 NC (127-336) = target: T3, MBP-AGO10 NC (127-336); experiment: as above; conditions: both partners purified
MBP-AGO10 PIWI (625-988) = target: T4, MBP-AGO10 PIWI (625-988); experiment: as above; conditions: both partners purified
[1] = target: the molecule itself; experiment: SEC; purified proteins after SUMO protease cleavage on Superdex75 (1.6 x 60), 20 mM Tris-HCl pH 7.5, 150 mM NaCl
6His-SUMO-RICE1 = target: B3; experiment: pull-down; His-SUMO baits and MBP-fusion preys purified from E. coli; prey preabsorbed on Ni-NTA resin, then incubated with bait 1 hr at room temperature and captured on Ni-NTA; 50 mM Tris pH 7.5, 150 mM NaCl, 0.2% glycerol, 0.6% Triton X-100, 0.5 mM β-mercaptoethanol; six washes with 300 mM NaCl; blot with anti-MBP; conditions: both partners purified
6His-SUMO-RICE2 = target: B1; experiment: as above; conditions: both partners purified

Binder: B1
- binding result (MBP-AGO1): binds
- binding result (MBP-AGO10): binds
- binding result (MBP-AGO10 NC (127-336)): binds
- binding result (MBP-AGO10 PIWI (625-988)): binds

Binder: B2
- stoichiometry N [1]: ~6

Binder: B3
- binding result (MBP-AGO1): binds
- binding result (MBP-AGO10): binds
- binding result (MBP-AGO10 NC (127-336)): binds
- binding result (MBP-AGO10 PIWI (625-988)): binds

Binder: B4
- binding result [1]: binds

Binder: B5
- binding result [1]: binds

Binder: B6
- binding result [1]: binds

Binder: B7
- binding result (6His-SUMO-RICE1): binds
- binding result (6His-SUMO-RICE2): binds
